Data: patent US20100144630

Legend:
[1] = tested on: heat-inactivated alpha-1 antitrypsin
[2] = tested on: alpha-1 antitrypsin (native, not heat-inactivated)

Question: How did the “elastase activity: hydrolysis of N-Succinyl-Ala-Ala-Ala-p-nitroanalide, absorbance at 410 nm” value [1] turn out when Elastase was run?
Answer: combining HIAAT with elastase produced a curve similar to that of elastase alone. This demonstrated that HIAAT possessed no detectable elastase neutralizing activity

Question: And the “elastase activity: hydrolysis of N-Succinyl-Ala-Ala-Ala-p-nitroanalide, absorbance at 410 nm” value [2]?
Answer: Combining native (NOT heat-inactivated) AAT ablated elastase processing of the N-Succinyl-Ala-Ala-Ala-p-nitroanalide substrate and blocked the increase in A410 nm
